In US20210380678A1 (SURROZEN OPERATING, published 2021):

T1: human RNF43 extracellular domain (hRNF43 ECD) (human, UniProt Q68DV7 44-197, biotinylated (His-Avi tag))
T1 construct: Expressed with a His-Avi tag at the N-terminus and biotinylated; also called human RNF3 (Q44-D198)
T1 sequence: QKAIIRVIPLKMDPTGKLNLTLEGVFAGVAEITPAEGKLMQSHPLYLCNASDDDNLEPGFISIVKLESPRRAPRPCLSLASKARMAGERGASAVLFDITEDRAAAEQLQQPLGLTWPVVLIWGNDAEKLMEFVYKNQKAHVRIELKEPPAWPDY

T2: human ZNRF3 extracellular domain (hZNRF3 ECD) (human, UniProt Q9ULT6 56-219, biotinylated (His-Avi tag))
T2 construct: Expressed with a His-Avi tag at the N-terminus and biotinylated; also called ZRNF3
T2 sequence: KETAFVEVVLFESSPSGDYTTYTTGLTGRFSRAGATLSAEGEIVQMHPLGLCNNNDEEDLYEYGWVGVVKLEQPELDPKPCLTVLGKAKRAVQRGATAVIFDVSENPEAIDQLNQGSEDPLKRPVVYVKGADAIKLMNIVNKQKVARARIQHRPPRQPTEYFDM


Tests used:
[1] = target: T1, human RNF43 extracellular domain …; assay: ELISA (binding specificity)
[2] = target: T2, human ZNRF3 extracellular domain …; assay: BLI (Octet) KD grade: * = KD >= 1 uM
Description: (§1) Binding characterization of recombinant Fabs or IgG' s was carried out using Bio-Layer Interferometry (BLI) using the Octet Red 96 platform (PALL ForteBio, Fremont, Calif.) with streptavidin (SA) coated biosensors (PALL ForteBio,). […] Following immobilization, sensors were dipped into samples containing test molecules at seven concentrations. Values for KD were determined by fitting the resulting data with a 1:1 binding model.

[3] = target: T2, human ZNRF3 extracellular domain …; assay: BLI (Octet), biotinylated antigen on SA sensor, 1:1 fit
Description: as §1

[4] = target: T2, human ZNRF3 extracellular domain …; assay: BLI (Octet) KD grade: *** = 100 nM > KD
Description: as §1

[5] = target: T2, human ZNRF3 extracellular domain …; assay: BLI (Octet) KD grade: ** = 1 uM > KD >= 100 nM
Description: as §1

Binder	binding result [1]	KD [2]	Kd [3]	KD [4]	KD [5]
020S-E06 (antibody, V domains shown) VH: QVQLVQSGAEVKKPGASVKVSCKASGYTFTGYYMHWVRQAPGQGLEWMGIINPSGGSTSYAQKFQGRVTMTRDTSTSTVYMELSSLRSEDTAVYYCARGRQGVWDYWGRGTLVTVSS VL: DIQMTQSPSSLSASVGDRVTITCRSSQSIRTYLNWYQQKPGKAPKLLIYAASTLQSGVPSRFSGSGSGTDFTLTISSLQPEDFATYYCQQANSFPITFGGGTKVEIK	binds	–	–	–	–
028S-D02 (antibody, V domains shown) VH: QVQLQQSGPGLVKPSQTLSLTCAISGDSVSSNSAAWYWIRQSPSRGLEWLGRTYYRSKWYHDYAVSVKSRITINADTSKNQFSLQLNSVTPEDTAVYYCARVVRAVDAFDIWGQGTMVTVSS VL: ETTLTQSPGTLSLSPGERATLSCRASQSVNSRYLAWYQQKPGQAPRLLIYGASSRATGIPDRLTGSGSGTDFTLTISRLEPEDFAVYYCQQYGSSRLTFGGGTKVEIK	–	≥ 1000 nM	3320 nM	–	–
020S-F06 (antibody, V domains shown) VH: QVQLVQSGAEVKKPGASVKVSCKASGYTFTSYYLHWVRQAPGQGLEWMGWMNPNSGNTGYAQNFQGRVTMTRDTSTSTVYMELSSLRSEDTAVYYCARGDFWSGYYPYYYYYYGMDVWGQGTTVTVSS VL: DIQMTQSPSSLSASVGDRVTITCRVSQGISSYLNWYQQKPGKAPKLLIYAASTLQSGVPSRFSGSGSGTDFTLTISSLQPEDFATYYCQQSYGAPLTFGQGTKVEIK	binds	–	–	–	–
028S-C03 (antibody, V domains shown) VH: QVQLVQSGAEVKKPGASVKVSCKASGYTFSRYFMHWVRQAPGQGLEWMGWINPNSGGTRYAQNLQGRVTMTRDTSTSTVYMELSSLRSEDTAVYYCARDQKGKSSSWFRFDPWGQGTLVTVSS VL: not shown	–	–	25.1 nM	< 100 nM	–
028S-B01 (antibody, V domains shown) VH: QVQLVQSGAEVKKPGASVKVSCKASGYTFTAYYMHWVRQAPGQGLEWMGIINPNGGRTTYAQKFQGRVTMTRDTSTSTVYMELSSLRSEDTAVYYCARSFGVAGTLDYWGQGTLVTVSS VL: DIVMTQSPLSLPVTPGEPASISCRSSQSLLHSNGYNYLDWYLQKPGQSPQLLIYDASNLETGVPDRFSGSGSGTDFTLKISRVEAEDVGVYYCMQTLHTPYTFGQGTKLEIK	binds	–	–	–	–
028S-A04 (antibody, V domains shown) VH: QVQLVQSGAEVKKPGASVKVSCKASGYTFTNYKMHWVRQAPGQGLEWMGKINPSSGSTSYAQKFQGRVTMTRDTSTSTVYMELSSLRSEDTAVYYCARSGAGMWYFDLWGRGTLVTVSS VL: DIQMTQSPSSLSASVGDRVTITCRASQDIYRYLNWYQQKPGKAPKLLIFAASSLHSGVPSRFSGSGSGTDFTLTISSLQPEDFATYYCQQSYTTPITFGQGTKVEIK	–	–	36.2 nM	< 100 nM	–
028S-C04 (antibody, V domains shown) VH: QVQLVQSGAEVKKPGASVKVSCKASGYTFTRYYMHWVRQAPGQGLEWMGIINPSGGSTSYAQKFQGRVTMTRDTSTSTVYMELSSLRSEDTAVYYCARGGSGWLDYWGQGTLVTVSS VL: DIQMTQSPSSLSASVGDRVTITCRASQSISTWLAWYQQKPGKAPKLLIYAASTLQSGVPSRFSGSGSGTDFTLTISSLQPEDFATYYCQQSYSSPLTFGGGTKVEIK	–	–	164 nM	–	100 to 1000 nM
028S-D09 (antibody, V domains shown) VH: QVQLVQSGAEVKKPGASVKVSCKASGYTFTRHYMHWVRQAPGQGLEWMGIINPSGGSTSYAQKFQGRVTMTRDTSTSTVYMELSSLRSEDTAVYYCARGSLGYFDLWGRGTLVTVSS VL: not shown	–	–	354 nM	–	100 to 1000 nM
028S-D04 (antibody, V domains shown) VH: QVQLVQSGAEVKKPGASVKVSCKASGGTFSSYAISWVRQAPGQGLEWMGRISPNRGGTKYAQKFQGRVTMTRDTSTSTVYMELSSLRSEDTAVYYCARDSWLRGAWGYWGQGTLVTVSS VL: DIQMTQSPSSLSASVGDRVTITCRASQSISRWLAWYQQKPGKAPKLLIYAASTLQSGVPSRFSGSGSGTDFTLTISSLQPEDFATYYCQQSFSTPYTFGQGTKVEIK	–	–	874 nM	–	100 to 1000 nM
028S-E04 (antibody, V domains shown) VH: EVQLLESGGGLVQPGGSLRLSCAASGFTFNNFGMSWVRQAPGKGLEWVSGISASGRNTYYADSVKGRFTISRDNSKNTLYLQMNSLRAEDRAVYYCARETRHGSDYWGQGTLVTVSS VL: not shown	–	–	95.3 nM	< 100 nM	–
028S-H04 (antibody, V domains shown) VH: QVQLVQSGAEVKKPGASVKVSCKASGYTFIGYYMHWVRQAPGQGLEWLGWVNPKNGHTGYAQKFQGRVTMTRDTSTSTVYMELSSLRSEDTAVYYCAKDLEHTGYSSGWAGFDYWGQGTLVTVSS VL: not shown	–	–	48 nM	< 100 nM	–
028S-B06 (antibody, V domains shown) VH: QVQLVQSGAEVKKPGASVKVSCKASGYRFTNYYMHWVRQAPGQGLEWMGWISPNSGATNYAQNFQGRVTMTRDTSTSTVYMELSSLRSEDTAVYYCARGGRTTVTTMAYWGQGTLVTVSS VL: DIVMTQSPLSLPVTPGEPASISCRSSQSLLHSNGYNYLDWYLQKPGQSPQLLIYGASSLQSGVPDRFSGSGSGTDFTLKISRVEAEDVGVYYCMQGTHWPRTFGQGTKVDIK	–	–	764 nM	–	100 to 1000 nM
028S-G01 (antibody, V domains shown) VH: QVQLVQSGAEVKKPGASVKVSCKASGYTFTNYYMHWVRQAPGQGLEWMGWINPHSGGTNYAQKFQGRVTMTRDTSTSTVYMELSSLRSEDTAVYYCAREDYNWNDGWFDPWGQGTLVTVSS VL: DIQMTQSPSSLSASVGDRVTITCRASENIHKYLNWYQQKPGKAPKLLIYAASSLQSGVPSRFSGSGSGTDFTLTISSLQPEDFATYYCQQGYSTPYTFGQGTKLEIK	binds	–	–	–	–
028S-G06 (antibody, V domains shown) VH: EVQLLESGGGLVQPGGSLRLSCAASGFAFSNFAMIWVRQAPGKGLEWVSAISGSGGSTYYADSVKGRFTISRDNSKNTLYLQMNSLRAEDTAVYYCARLRANYGMDVWGQGTTVTVSS VL: not shown	–	–	109 nM	–	100 to 1000 nM
028S-B07 (antibody, V domains shown) VH: QVQLVQSGAEVKKPGASVKVSCKASGYTFTEYYMHWVRQAPGQGLEWMGWMNPNSGHAGSAQKFQGRVTMTRDTSTSTVYMELSSLRSEDTAVYYCARGRRSGLSPPAYWGQGTLVTVSS VL: EIVMTQSPATLSVSPGERATLSCRASQSVSASLAWYQQKPGQAPRLLIYGASTRATGIPARFSGSGSGTEFTLTISSLQSEDFAVYYCHQYFSPPMTFGQGTRLEIK	–	–	65.4 nM	< 100 nM	–
028S-E08 (antibody, V domains shown) VH: EVQLLESGGGLVQPGGSLRLSCAASGFSFSNYAMSWVRQAPGKGLEWVSAISGSGRTTYYADSVKGRFTISRDNSKNTLYLQMNSLRAEDTAVYYCARRTSSFSLWGQGTLVTVSS VL: DIQMTQSPSSLSASVGDRVTITCRASQSINNWLAWYQQKPGKAPKLLIYKASSLESGVPSRFSGSGSGTDFTLTISSLQPEDFATYYCQQANTFPITFGQGTRLEIK	–	≥ 1000 nM	3900 nM	–	–
028S-A09 (antibody, V domains shown) VH: QVQLVQSGAEVKKPGASVKVSCKASGYRFTSYYLHWVRQAPGQGLEWMGWMNPKSGGTNYAQKFQGRVTMTRDTSTSTVYMELSSLRSEDTAVYYCARGGRSYGYWYFDLWGRGTLVTVSS VL: EIVMTQSPATLSVSPGERATLSCRASQSVDSSYLAWYQQKPGQAPRLLIYAASARAAGIPARFSGSGSGTEFTLTISSLQSEDFAVYYCQQYYRSPPTFGQGTRLEIK	–	≥ 1000 nM	12500 nM	–	–
028S-G10 (antibody, V domains shown) VH: QVQLVQSGAEVKKPGASVKVSCKASGYTFTSYGVSWVRQAPGQGLEWMGIINPRGGSTSYAQNFQGRVTMTRDTSTSTVYMELSSLRSEDTAVYYCARYSSSWSWPFDYWGQGTLVTVSS VL: DIQMTQSPSSLSASVGDRVTITCRASQGISNNLNWYQQKPGKAPKLLIYAASTLQSGVPSRFSGSGSGTDFTLTISSLQPEDFATYYCQQSYSTPTFGQGTKVEIK	–	–	684 nM	–	100 to 1000 nM
028S-A11 (antibody, V domains shown) VH: QVQLVQSGAEVKKPGASVKVSCKASGGTFSGYYMHWVRQAPGQGLEWMGWINPNRGGTSYAQNFQGRVTMTRDTSTSTVYMELSSLRSEDTAVYYCARGMYSSSWLRYWGQGTLVTVSS VL: DIQMTQSPSSLSASVGDRVTITCRASQGISNYLAWYQQKPGKAPKLLIYAASSLQSGVPSRFSGSGSGTDFTLTISSLQPEDFATYYCQQGSSFPLTFGQGTKVDIK	–	–	203 nM	–	100 to 1000 nM
024S-A02 (antibody, V domains shown) VH: EVQLVQSGAEVKKPGASVKVSCKASGYTFTSYAMHWVRQAPGQRLEWMGWINAGNGNTKYSQTFQGRVTITRDTSASTAYMELSSLRSEDTAVYYCARDLMVRGGPPFDYWGQGTLVTVSS VL: not shown	binds	–	–	–	–
